Reference: the supplement of paper PMC12764529
± gives the half width of the 95% confidence interval.

Key:
[1] = folding stability dG unfold from trypsin proteolysis; higher = more stable
Method in brief: (§1)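 Digests were run with trypsin and chymotrypsin at 11 concentrations in threefold dilutions, plus a no-protease condition, on designed mini-proteins in a PA-tagged cDNA display construct. The mini-proteins were under 80 residues, had no cysteine, and were kept only when AlphaFold2 dimer inter-PAE was above 15. After sequencing, Bayesian fitting of the counts gave K50, from which unfolding free energy was derived against a sequence-predicted unfolded-state K50 and a shared folded-state K50, per protease or combined.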

[2] = folding stability dG unfold (combined trypsin and chymotrypsin); higher = more stable
Method in brief: as §1

[3] = folding stability dG unfold from chymotrypsin proteolysis; higher = more stable
Method in brief: as §1

Which “folding stability dG unfold” value [1] does the source give for “SAGGSAGGSAGGSTGITSTFFDPKTGTVTTTTLVPSTGTTTTTVTPVTIPGPAATTTLTSAGGSAGGSAGGS [r10_331_JUSTAS]” here?
Its value is 1.31 ± 0.067 kcal/mol.

What about the “folding stability dG unfold” value [2] of the same sequence?
The value was 0.888 ± 0.045 kcal/mol.

And the “folding stability dG unfold” value [3]?
Its value is 0.55 ± 0.052 kcal/mol.

What does the source list for “SAGGSAGGSAGGSTITISPEQPVEGLTIELDGKTIKVVSYTPEPKEGEPLLKVTVERLDSAGGSAGGSAGGS [r10_1098_JUSTAS]”?
folding stability dG unfold [1]: -1.28 ± 0.86 kcal/mol; folding stability dG unfold [2]: -0.771 ± 0.81 kcal/mol; folding stability dG unfold [3]: -0.489 ± 0.33 kcal/mol

For “SAGGSAGGSAGGSTLQSNASGIFTLYLAGSNLTVTLSKAELPKIPADFPIPSSATFTAGSAGGSAGGSAGGS [r4_91_JUSTAS]”, which “folding stability dG unfold” value [1] is on record?
Its value is 0.215 ± 0.16 kcal/mol.

What about the “folding stability dG unfold” value [2] of the same sequence?
The value was -0.196 ± 0.41 kcal/mol.

And the “folding stability dG unfold” value [3]?
The value was -0.41 ± 0.51 kcal/mol.

For “SAGGSAGGSAGGSTPTPDGSPVEITLPDGTVVTFDPATNSITIATRTPDSVSTTPIPAAASAGGSAGGSAGG [r7_527_JUSTAS]”, which “folding stability dG unfold” value [1] is on record?
Its value is 1.34 ± 0.031 kcal/mol.

And the “folding stability dG unfold” value [2]?
The value was 1.2 ± 0.035 kcal/mol.

What about the “folding stability dG unfold” value [3] of the same sequence?
The value was 1.08 ± 0.037 kcal/mol.

With “SAGGSAGGSAGGSVPSDVTVSILEIEPKEDKYLVLLRVPENGTLIEREFESLEEAKELLSAGGSAGGSAGGS [r10_1038_JUSTAS]” as the sequence, how does the “folding stability dG unfold” value [1] read?
Its value is 1.16 ± 0.033 kcal/mol.

What about the “folding stability dG unfold” value [2] of the same sequence?
The value was 0.645 ± 0.088 kcal/mol.

What about the “folding stability dG unfold” value [3] of the same sequence?
The value was -0.51 ± 0.21 kcal/mol.

Which “folding stability dG unfold” value [1] does the source give for “SAGGSAGGSAGGSVTVERYPDGKVTTTTTDPTRPVTTVTLAEVEPGPGKVLTETVTPVPSAGGSAGGSAGGS [r10_613_JUSTAS]” here?
The value was 0.835 ± 0.057 kcal/mol.

What about the “folding stability dG unfold” value [2] of the same sequence?
Its value is 1.12 ± 0.1 kcal/mol.

And the “folding stability dG unfold” value [3]?
The value was 1.3 ± 0.14 kcal/mol.

With “SAGGSAGGSAGGSVVPTTSYSPDGTLTLTTETVTPSSNGLTVTSSTTVRPLPTPASPAASAGGSAGGSAGGS [r10_1200_JUSTAS]” as the sequence, how does the “folding stability dG unfold” value [1] read?
The value was 1.35 ± 0.18 kcal/mol.

And the “folding stability dG unfold” value [2]?
The value was 1.04 ± 0.11 kcal/mol.

What about the “folding stability dG unfold” value [3] of the same sequence?
The value was 1.01 ± 0.039 kcal/mol.

For “SAGGSAGGSAGGSVVTRLPNGSYRYTVTRVSFDPKTGTWSSETTVLTVPPDRPVEIPPGSAGGSAGGSAGGS [r4_48_JUSTAS]”, which “folding stability dG unfold” value [1] is on record?
Its value is 1.14 ± 0.049 kcal/mol.

And the “folding stability dG unfold” value [2]?
Its value is 1.89 ± 0.096 kcal/mol.

What about the “folding stability dG unfold” value [3] of the same sequence?
The value was 2.26 ± 0.11 kcal/mol.

With “SAGGSAGGSAGGSVWIMIPLEEIKDLLPPGWTVEVEPQPMPNNGYIMVPVEIVPPDNAKSAGGSAGGSAGGS [r4_119_TrROS]” as the sequence, how does the “folding stability dG unfold” value [1] read?
The value was 0.0715 ± 0.047 kcal/mol.

What about the “folding stability dG unfold” value [2] of the same sequence?
The value was 0.552 ± 0.16 kcal/mol.

What about the “folding stability dG unfold” value [3] of the same sequence?
Its value is 0.861 ± 0.13 kcal/mol.

With “SAGGSAGGSAGGSWTVTKEISREGDKVYISTVTTYVNPNGTPVTETETKEISPEEVAELESAGGSAGGSAGG [r11_690_JUSTAS]” as the sequence, how does the “folding stability dG unfold” value [1] read?
Its value is 0.964 ± 0.037 kcal/mol.

What about the “folding stability dG unfold” value [2] of the same sequence?
Its value is 1.11 ± 0.11 kcal/mol.

What about the “folding stability dG unfold” value [3] of the same sequence?
Its value is 1.11 ± 0.14 kcal/mol.

Which “folding stability dG unfold” value [1] does the source give for “SAGGSAGGSAGGVAVPKEGIEEFISQLPPDTVVTLYDPETGKDIKVTVSNGKVTISPEGSAGGSAGGSAGGS [r10_137_JUSTAS]” here?
Its value is 1.29 ± 0.12 kcal/mol.

And the “folding stability dG unfold” value [2]?
Its value is 1.17 ± 0.12 kcal/mol.

What about the “folding stability dG unfold” value [3] of the same sequence?
Its value is 1.02 ± 0.12 kcal/mol.

For “SAGGSAGGSAGGVEELKKALEKAGFKVVKVEVTEVKNPETKETTTKITVTLEDGSKLTITSAGGSAGGSAGG [r7_337_TrROS_Hall]”, which “folding stability dG unfold” value [1] is on record?
The value was 3.95 ± 0.2 kcal/mol.

What about the “folding stability dG unfold” value [2] of the same sequence?
The value was 3.72 ± 0.11 kcal/mol.

What about the “folding stability dG unfold” value [3] of the same sequence?
The value was 3.63 ± 0.058 kcal/mol.

Which “folding stability dG unfold” value [1] does the source give for “SAGGSAGGSAGGVIKTFTSPDNKKYTVTVNKDGSVTVETFDPETGKKSISTVSAAEASLSAGGSAGGSAGGS [r10_838_JUSTAS]” here?
The value was 1.32 ± 0.029 kcal/mol.

What about the “folding stability dG unfold” value [2] of the same sequence?
The value was 1.18 ± 0.063 kcal/mol.

What about the “folding stability dG unfold” value [3] of the same sequence?
Its value is 0.828 ± 0.066 kcal/mol.

What does the source list for “SAGGSAGGSAGGVKEFDALAGGVPVKVKVYPDPDGNPRVEVIFPDGSKVTLSADEPLNLSAGGSAGGSAGGS [r10_989_TrMRF]”?
folding stability dG unfold [1]: 2.26 ± 0.067 kcal/mol; folding stability dG unfold [2]: 1.87 ± 0.068 kcal/mol; folding stability dG unfold [3]: 1.58 ± 0.08 kcal/mol

What does the source list for “SAGGSAGGSAGGVKKGDKVTVLRVRLELKIKVEKTEDGSLKLTAELKLEISLVTVTAPDSAGGSAGGSAGGS [r10_297_TrROS_Hall]”?
folding stability dG unfold [1]: 3.53 ± 0.14 kcal/mol; folding stability dG unfold [2]: 5.06 ± 0.21 kcal/mol; folding stability dG unfold [3]: 5.2 ± 0.15 kcal/mol

With “SAGGSAGGSAGGVKPGQKVKVEIDGKTYEATVDEKNGTIYVTLPNGKKYKAKIVKVEKVSAGGSAGGSAGGS [r10_1185_TrROS_Hall]” as the sequence, how does the “folding stability dG unfold” value [1] read?
The value was 1.79 ± 0.18 kcal/mol.

And the “folding stability dG unfold” value [2]?
Its value is 2.38 ± 0.12 kcal/mol.

What about the “folding stability dG unfold” value [3] of the same sequence?
Its value is 2.64 ± 0.05 kcal/mol.

Which results are given for “SAGGSAGGSAGGVPPESVLLSEEKVGGKTVEIVRDPATGKLYRVTKVPGSDSIEVEELGLSAGGSAGGSAGG [r7_179_JUSTAS]”?
folding stability dG unfold [1]: 2.2 ± 0.093 kcal/mol; folding stability dG unfold [2]: 2.43 ± 0.092 kcal/mol; folding stability dG unfold [3]: 2.549 ± 0.013 kcal/mol

What does the source list for “SAGGSAGGSAGGVTIVIGTDKDIPAEVIEKEVADELLKAGIPPDVKVNVVVVPIDPDALSAGGSAGGSAGGS [r10_746_TrMRF]”?
folding stability dG unfold [1]: 1.1 ± 0.042 kcal/mol; folding stability dG unfold [2]: 1.11 ± 0.1 kcal/mol; folding stability dG unfold [3]: 1.17 ± 0.087 kcal/mol
